Data on four molecules can be found in patent US20120258119A1 (LUDWIG INSTITUTE FOR CANCER RESEARCH, published 2012).

The target of experiment [1] is T1, recombinant human FAP (R&D systems) (human, UniProt Q12884 26-760).
T1 construct: Bought protein amine-coupled at low density on a CM5 chip for SPR; also called rhuFAP; rFAP
T1 sequence (looked up): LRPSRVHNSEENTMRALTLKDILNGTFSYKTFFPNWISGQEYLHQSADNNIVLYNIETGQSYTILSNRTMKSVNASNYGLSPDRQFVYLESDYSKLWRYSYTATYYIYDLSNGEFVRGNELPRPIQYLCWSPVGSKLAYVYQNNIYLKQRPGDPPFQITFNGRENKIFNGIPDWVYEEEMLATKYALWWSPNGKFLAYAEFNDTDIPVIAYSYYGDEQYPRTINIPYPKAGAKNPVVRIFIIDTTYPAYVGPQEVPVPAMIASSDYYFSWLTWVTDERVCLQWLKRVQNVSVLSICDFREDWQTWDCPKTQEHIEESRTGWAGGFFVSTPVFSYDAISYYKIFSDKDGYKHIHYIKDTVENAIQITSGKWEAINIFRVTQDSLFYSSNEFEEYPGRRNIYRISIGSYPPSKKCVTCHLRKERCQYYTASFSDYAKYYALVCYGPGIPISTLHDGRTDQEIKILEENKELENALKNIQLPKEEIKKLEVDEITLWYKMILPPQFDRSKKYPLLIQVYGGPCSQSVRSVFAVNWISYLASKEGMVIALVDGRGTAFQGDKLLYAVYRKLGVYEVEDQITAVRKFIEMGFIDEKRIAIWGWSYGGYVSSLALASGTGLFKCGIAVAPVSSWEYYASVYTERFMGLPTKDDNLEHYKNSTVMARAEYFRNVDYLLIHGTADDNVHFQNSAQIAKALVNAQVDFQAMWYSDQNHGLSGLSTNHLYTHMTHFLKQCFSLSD
Briefly: SPR (BIAcore T100), Fab injected over rhuFAP on a low-density CM5 chip. On the procedure:
(§1) Binding analysis of Fabs to recombinant FAP (R&D systems) was performed on a BIAcore T100 instrument. rFAP was immobilized at low density on a CM5 sensor chip using amine coupling chemistry. […] Analysis of the binding curves and determination of rate constants was done using the nonlinear data analysis program BIAevaluation.

The target of experiment [2] is T2, murine FAP expressed on HEK293 cells (mouse, UniProt P97321 1-761).
T2 construct: whole, on cells; Also used as cell lysate in ELISA; also called muFAP; mouse FAP
T2 sequence (looked up): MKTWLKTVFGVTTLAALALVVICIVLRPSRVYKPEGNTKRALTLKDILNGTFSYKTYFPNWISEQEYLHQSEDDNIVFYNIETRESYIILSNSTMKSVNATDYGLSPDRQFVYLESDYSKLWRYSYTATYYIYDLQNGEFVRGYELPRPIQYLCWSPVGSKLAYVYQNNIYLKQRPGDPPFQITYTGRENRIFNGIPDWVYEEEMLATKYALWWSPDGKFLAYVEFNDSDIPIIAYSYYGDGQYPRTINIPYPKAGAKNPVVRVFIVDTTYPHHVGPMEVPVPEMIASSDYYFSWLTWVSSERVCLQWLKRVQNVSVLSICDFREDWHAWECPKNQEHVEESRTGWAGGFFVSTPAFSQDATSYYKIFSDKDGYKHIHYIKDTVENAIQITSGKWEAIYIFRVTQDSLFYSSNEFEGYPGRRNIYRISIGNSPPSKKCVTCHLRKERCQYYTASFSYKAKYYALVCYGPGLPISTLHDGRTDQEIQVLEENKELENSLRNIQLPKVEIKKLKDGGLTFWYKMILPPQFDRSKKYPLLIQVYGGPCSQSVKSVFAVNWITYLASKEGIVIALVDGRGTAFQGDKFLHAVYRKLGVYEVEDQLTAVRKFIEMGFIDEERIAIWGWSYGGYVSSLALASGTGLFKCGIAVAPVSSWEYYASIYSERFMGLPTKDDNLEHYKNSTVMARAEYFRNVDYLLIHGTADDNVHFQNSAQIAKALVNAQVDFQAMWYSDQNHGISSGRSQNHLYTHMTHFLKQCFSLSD
Briefly: flow cytometry, serial dilutions on 293 muFAP+ cells (apparent KD). Here is the method: The cells were then washed once with PBS, fixed for 20 min with 2% PFA on ice and bound antibody was detected with PE-conjugated anti-human IgG F(ab)′₂ (Jackson Immuno Research 109-116-097). Cells were analyzed on a FACScan (BD) cytometer and data was analysed with FlowJo. The apparent Kapp was calculated by fitting a dose-response curve using the following equitation f=Bmax*abs(x)/(Kd+abs(x))+Ns*x using SigmaPlot software (Systat Software Inc.).

Experiment [3] has as its target T3, human DPPIV/CD26 expressed on HEK293 cells (human, UniProt P27487 1-766).
T3 construct: whole, on cells; also called huCD26; dipeptidyl peptidase IV
In words: ELISA, Fab at 100 nM on plates coated with cell lysate. (An ELISA detects its analyte on a solid surface through an enzyme-linked reagent.)

The target of experiment [4] is T1, recombinant human FAP (R&D systems). In words: SPR (BIAcore), Fab 6.25-200 nM injected over rhuFAP on a CM5 chip, heterogeneous ligand model [box under the right panel]. Here is the method: (§2) Purified Fabs were injected at the concentrations indicated in the figure on a rhuFAP-coated CM5 sensor chip. Values were corrected for binding to the reference flow cell. The black solid lines represent the theoretical curves for each Fab concentration calculated according to the heterogeneous ligand model and the indicated rate and affinity constants.
as §1

The target in experiment [5] is T4, human Fibroblast Activation Protein (FAP) expressed on cells (human, UniProt Q12884 1-760).
T4 construct: whole, on cells; also called huFAP; human FAP
T4 sequence (looked up): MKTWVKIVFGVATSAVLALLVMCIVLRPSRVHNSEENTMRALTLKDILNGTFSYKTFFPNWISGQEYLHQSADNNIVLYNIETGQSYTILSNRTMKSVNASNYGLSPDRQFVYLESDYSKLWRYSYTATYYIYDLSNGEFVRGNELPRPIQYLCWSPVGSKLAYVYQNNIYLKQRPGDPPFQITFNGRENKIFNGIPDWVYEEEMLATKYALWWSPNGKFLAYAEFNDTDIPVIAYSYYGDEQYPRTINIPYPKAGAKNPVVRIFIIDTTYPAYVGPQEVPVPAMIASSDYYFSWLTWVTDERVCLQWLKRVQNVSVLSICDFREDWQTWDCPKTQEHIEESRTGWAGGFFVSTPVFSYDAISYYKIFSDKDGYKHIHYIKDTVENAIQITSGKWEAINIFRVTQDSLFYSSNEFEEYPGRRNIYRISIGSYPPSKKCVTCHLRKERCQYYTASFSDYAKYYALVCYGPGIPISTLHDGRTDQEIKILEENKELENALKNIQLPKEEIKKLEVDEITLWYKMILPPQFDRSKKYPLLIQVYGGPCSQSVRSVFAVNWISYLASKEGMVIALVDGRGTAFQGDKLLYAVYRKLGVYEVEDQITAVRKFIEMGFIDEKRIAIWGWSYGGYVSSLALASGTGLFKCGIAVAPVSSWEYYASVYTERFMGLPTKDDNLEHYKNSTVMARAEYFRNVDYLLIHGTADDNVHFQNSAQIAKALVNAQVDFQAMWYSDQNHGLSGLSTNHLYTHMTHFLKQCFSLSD
Briefly: flow cytometry, serial dilutions on human FAP expressing cells (apparent KD).

Experiment [6] deals with T1, recombinant human FAP (R&D systems). Briefly: SPR (BIAcore), Fab 0.5-16 nM injected over rhuFAP on a CM5 chip, heterogeneous ligand model [box under the left panel]. Here is the method:
as §2, §1
In general terms: SPR reads the build-up and loss of mass on a sensor chip optically.

T3 sequence (P27487 whole entry): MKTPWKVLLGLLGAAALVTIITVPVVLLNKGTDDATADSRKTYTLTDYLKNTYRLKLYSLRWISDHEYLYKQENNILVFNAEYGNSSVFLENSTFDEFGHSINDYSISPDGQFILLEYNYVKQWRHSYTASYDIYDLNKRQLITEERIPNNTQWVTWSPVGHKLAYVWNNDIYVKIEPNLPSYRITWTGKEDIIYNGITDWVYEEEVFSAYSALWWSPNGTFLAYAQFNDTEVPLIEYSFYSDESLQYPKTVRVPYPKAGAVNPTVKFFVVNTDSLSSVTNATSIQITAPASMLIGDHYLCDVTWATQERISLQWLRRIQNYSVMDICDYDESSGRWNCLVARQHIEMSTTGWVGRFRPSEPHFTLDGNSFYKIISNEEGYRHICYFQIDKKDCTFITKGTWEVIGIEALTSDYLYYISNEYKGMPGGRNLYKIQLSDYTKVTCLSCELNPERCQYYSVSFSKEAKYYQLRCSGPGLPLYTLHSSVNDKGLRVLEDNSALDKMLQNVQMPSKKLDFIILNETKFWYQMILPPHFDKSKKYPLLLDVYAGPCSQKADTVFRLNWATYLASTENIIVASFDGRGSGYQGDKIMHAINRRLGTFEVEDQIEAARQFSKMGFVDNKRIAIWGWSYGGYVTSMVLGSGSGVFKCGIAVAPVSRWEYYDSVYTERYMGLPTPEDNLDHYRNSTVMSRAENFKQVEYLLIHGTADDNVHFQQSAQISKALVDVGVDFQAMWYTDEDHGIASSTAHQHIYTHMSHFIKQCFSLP

B1: ESC14 Fab fragment (Fab, V domains shown)
VH: EVQLVQSGAEVKKPGASVKVSCKASGYTFTSYGISWVRQAPGQGLEWMGWISAYNGNTNYAQKLQGRVTMTTDTSTSTAYMELRSLRSDDTAVYYCARDWSRSGYYLPDYWGQGTLVTVSS
VL: DVVMTQSPLSLPVTLGQPASISCRSSQSLLHSNGYNYLDWYLQRPGQSPHLLIFLGSNRASGVPDRFSGSGSGTDFTLKISRVEAEDVGIYYCMQALQTPPTFGQGTKVEIK
notes: Fully human Fab from a non-immunized phage library, made in E. coli TG-1, His-tag purified and detected by its myc tag; also called Fab ESC14
The term koff denotes the rate constant with which the complex falls apart. As a reminder, the kon is a measure of how fast the partners come together. Consider B1, for which the Kd in experiment [1] amounted to 210 nM. In addition, the Kd in experiment [2] turned out to be 251 nM. For the same molecule, the binding result in experiment [3] is given as “no binding (tested: 100 nM)”. Besides, in experiment [4], the koff worked out at 0.125 s⁻¹ and the kon came to 560000 M⁻¹ s⁻¹.

B2: ESC14 IgG1 (antibody, V domains shown)
VH: EVQLVQSGAEVKKPGASVKVSCKASGYTFTSYGISWVRQAPGQGLEWMGWISAYNGNTNYAQKLQGRVTMTTDTSTSTAYMELRSLRSDDTAVYYCARDWSRSGYYLPDYWGQGTLVTVSS
VL: DVVMTQSPLSLPVTLGQPASISCRSSQSLLHSNGYNYLDWYLQRPGQSPHLLIFLGSNRASGVPDRFSGSGSGTDFTLKISRVEAEDVGIYYCMQALQTPPTFGQGTKVEIK
notes: Variable domains cloned into a full human IgG1 format and produced in NS0 cells
On to B2, for which, in experiment [5], the Kd stood at 1.1 nM.

B3: ESC11 IgG1 (antibody, V domains shown)
VH: QVQLQESGPGLVKPSETLSLTCTVSGGSISSNNYYWGWIRQTPGKGLEWIGSIYYSGSTNYNPSLKSRVTISVDTSKNQFSLKLSSVTAADTAVYYCARGARWQARPATRIDGVAFDIWGQGTMVTVSS
VL: ETTLTQSPGTLSLSPGERATLSCRASQTVTRNYLAWYQQKPGQAPRLLMYGASNRAAGVPDRFSGSGSGTDFTLTISRLEPEDFAVYYCQQFGSPYTFGQGTKVEIK
notes: Variable domains cloned into a full human IgG1 format (modified pEE12.4 vector) and produced in NS0 cells; also called ESC11 DyLight 488
As for B3, the Kd in experiment [5] came to 1.1 nM.

B4: ESC11 Fab fragment (Fab, V domains shown)
VH: HVQLQESGPGLVKPSETLSLTCTVSGGSISSNNYYWGWIRQTPGKGLEWIGSIYYSGSTNYNPSLKSRVTISVDTSKNQFSLKLSSVTAADTAVYYCARGARWQARPATRIDGVAFDIWGQGTMVTVSS
VL: ETTLTQSPGTLSLSPGERATLSCRASQTVTRNYLAWYQQKPGQAPRLLMYGASNRAAGVPDRFSGSGSGTDFTLTISRLEPEDFAVYYCQQFGSPYTFGQGTKVEIK
notes: Fully human Fab from a non-immunized phage library, made in E. coli TG-1, His-tag purified and detected by its myc tag; also called Fab ESC11
As for B4, the Kd in experiment [1] came out at 10 nM. The Kd in experiment [2] was 51 nM. For the same molecule, the binding result in experiment [3] was “no binding (tested: 100 nM)”. Further, in experiment [6], the off-rate (koff) came to 0.017 s⁻¹ and the kon was 1.6e+06 M⁻¹ s⁻¹.
